The text below walks through data of the supplement of paper PMC10724198.

± gives the standard deviation of the averaged measurements.
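Also: PSI is a weighted mean of sequencing reads over stability bins, variants kept only with over 10 reads, mCherry proximal and sfGFP distal, peptide attached via GGGS linker.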

The data set relates to Saccharomyces cerevisiae. Briefly: protein stability index of tFT-peptide fusion (C-terminal peptide) (PSI (0-1 scale)); higher = more stable (slower turnover). The conditions noted are these: genetic background: wild type; temperature: 30 C.
Regarding QFSSPPLPLLSP, the protein stability index was 0.629 ± 0.035. The value for QGCSRHIRTGKK was 0.5741 ± 0.0037; that for QGGRGGRHVTDI was 0.688 ± 0.022; that for QGIKKKKEKERR was 0.768 ± 0.14. In turn, QGQAAHEHFHGR had a protein stability index of 0.654 ± 0.042.

QGREREAGAEVM came in with a protein stability index of 0.699 ± 0.03. The sequence QGRTWGGCWGRG registered a protein stability index of 0.649 ± 0.012. QGSKQKIISAAT returned a protein stability index of 0.6807 ± 0.0064.

Sequence QIERSRIAYLST returned a protein stability index of 0.6933 ± 0.0027. Sequence QIQRSGGGGHCG yielded a protein stability index of 0.739 ± 0.0028. Under QITSHRVISRLV stands 0.546 ± 0.037.

QKIREKKKRKKL registered a protein stability index of 0.622 ± 0.015.

In the case of QKKIIRKRKKNR, the protein stability index was determined as 0.666 ± 0.012.

In the case of QKKKKKKVQKKQ, the protein stability index stood at 0.6702 ± 0.0054. The value for QKKKKLAYVGKR was 0.659 ± 0.012. QKKKKNKKQKTE had a protein stability index of 0.599 ± 0.021. Sequence QKNETNQWKGKK showed a protein stability index of 0.672 ± 0.032. QKQINQKKRTMK displayed a protein stability index of 0.649 ± 0.055. QKREEPQNKSQD: the protein stability index is 0.72 ± 0.017. Under QKSCHIADGREL stands 0.671 ± 0.022; under QLEGQGISFRVL, 0.785 ± 0.065.

For QLENQRGWDRKI, the protein stability index was 0.656 ± 0.038. Under QLHGWMTRNPLL stands 0.746 ± 0.051.

Sequence QLRPPHRTLHLP had a protein stability index of 0.698 ± 0.028. The value for QLSTSGLTTTAW was 0.707 ± 0.029; that for QLYGHNRRNQGL was 0.611 ± 0.046; that for QMSHTGPTTIQS was 0.695 ± 0.023. The value for QNERRLPVGSYA was 0.696 ± 0.06.

QNGAEESVSVGT: the protein stability index is 0.662 ± 0.042. Sequence QNIGPKEESVLA registered a protein stability index of 0.682 ± 0.035.

Consider QNLYLSFLRIKL, for which the protein stability index amounted to 0.624 ± 0.0088.

In turn, QNQILNKKVIFK showed a protein stability index of 0.681 ± 0.056. The value for QPGDVWEFGVLL was 0.73 ± 0.027; that for QPGTPLSPPPSP was 0.49 ± 0.019; that for QPKEGGRPKKKE was 0.675 ± 0.035. Under QPRLPLPLSSPV stands 0.611 ± 0.071. QPTRADLEAPPR: the protein stability index came out at 0.6858 ± 0.0065. Under QQDHRSHAHRRL stands 0.7047 ± 0.0013; under QQPPSSGTPDNH, 0.703 ± 0.027.

QRNPQNKDRVQD returned a protein stability index of 0.663 ± 0.004.

As to QRRGAPTPPACL, the protein stability index turned out to be 0.748 ± 0.011. In turn, QRVWGFRSVFVR displayed a protein stability index of 0.532 ± 0.035.

In turn, QRWKEGRGHSRQ displayed a protein stability index of 0.686 ± 0.017. The value for QSGLAGIPIPKN was 0.681 ± 0.078. As to QSKFNKFPIVET, the protein stability index was determined as 0.656 ± 0.046. Under QSPMTTGASERH stands 0.623 ± 0.066; under QSPSALAEGPDD, 0.641 ± 0.099. Turning to QSRAQTFGTSIS, the protein stability index amounted to 0.668 ± 0.013.

As to QSYRGIGFRTTM, the protein stability index stood at 0.607 ± 0.049.

As for QTGPPDPPLSPP, the protein stability index was determined as 0.643 ± 0.014. Regarding QTHFRPDYALDW, the protein stability index was 0.753 ± 0.064. The value for QTTKEQQKKSYK was 0.665 ± 0.053; that for QVILQHSLGLLD was 0.707 ± 0.014; that for QYGARNHPPTTK was 0.742 ± 0.063. Turning to QYKRFYGSLVNG, the protein stability index came to 0.608 ± 0.047. Under QYLKTKKEGKEF stands 0.698 ± 0.024; under RAAFNPCYTIDF, 0.729 ± 0.025. The sequence RAARGGRSGTRV gave a protein stability index of 0.643 ± 0.097.

For the sequence RAARVSVVAYPF, the protein stability index worked out at 0.682 ± 0.0094. RAAVTDPCNPLL displayed a protein stability index of 0.693 ± 0.0094.

As to RACDQPSGVCNV, the protein stability index worked out at 0.669 ± 0.038. The value for RACGVSMRIKGG was 0.695 ± 0.033; that for RACLDRNNLDLG was 0.605 ± 0.075; that for RADQGGVVNGEG was 0.732 ± 0.055.

As for RAIGREGILHRA, the protein stability index came out at 0.693 ± 0.094. Under RAKRMVGQTIQE stands 0.765 ± 0.18; under RALCGWFAKRMI, 0.637 ± 0.035. The value for RALCISCYVALR was 0.5849 ± 0.00077; that for RAPSTPSGRPSL was 0.65 ± 0.051.

The sequence RARAIGVGSGRG had a protein stability index of 0.698 ± 0.023.

In turn, RARCPGGQIKLH registered a protein stability index of 0.714 ± 0.2. The value for RARQYTTAMIQS was 0.469 ± 0.088; that for RARSFINSFSQS was 0.671 ± 0.018; that for RASRSPIARPGT was 0.643 ± 0.018. The value for RAVFLCVWDYSG was 0.597 ± 0.13; that for RAVVTGEGESGG was 0.624 ± 0.0092. Under RCCGRSRLVVPW stands 0.6986 ± 0.0023; under RCEGRRIEQSGK, 0.7037 ± 0.0049; under RCEWRGSCWGGE, 0.653 ± 0.062.

Take RCGCLRVPTGGG: the protein stability index was determined as 0.679 ± 0.075.
